Reference: article PMC3467086

T1: NF90 dsRBDs (mouse, UniProt Q9Z1X4 380-590)
T1 sequence: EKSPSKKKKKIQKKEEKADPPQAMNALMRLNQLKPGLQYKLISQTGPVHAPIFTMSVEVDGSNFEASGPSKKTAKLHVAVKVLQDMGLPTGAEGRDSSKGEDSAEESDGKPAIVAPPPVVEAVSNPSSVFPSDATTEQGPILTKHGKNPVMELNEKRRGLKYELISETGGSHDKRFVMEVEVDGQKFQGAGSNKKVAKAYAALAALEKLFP


What was measured:
Assay in all cases: EMSA
[1] = molecular target: NF90ΔC381 (DZF);NF45ΔN28 (DZF) (mouse;mouse, UniProt Q9Z1X4;Q9CXY6 1-380;29-390, |)
[2] = molecular target: NF90ΔC591 (DZF + both dsRBDs);NF45 (partner in long complex) (mouse;mouse, UniProt Q9Z1X4;Q9CXY6 1-590;29-390, |)
NF90ΔC591 (DZF + both dsRBDs);NF45 (partner in long complex), sequence (Q9CXY6 29-390, stated change not applied, one chain of several): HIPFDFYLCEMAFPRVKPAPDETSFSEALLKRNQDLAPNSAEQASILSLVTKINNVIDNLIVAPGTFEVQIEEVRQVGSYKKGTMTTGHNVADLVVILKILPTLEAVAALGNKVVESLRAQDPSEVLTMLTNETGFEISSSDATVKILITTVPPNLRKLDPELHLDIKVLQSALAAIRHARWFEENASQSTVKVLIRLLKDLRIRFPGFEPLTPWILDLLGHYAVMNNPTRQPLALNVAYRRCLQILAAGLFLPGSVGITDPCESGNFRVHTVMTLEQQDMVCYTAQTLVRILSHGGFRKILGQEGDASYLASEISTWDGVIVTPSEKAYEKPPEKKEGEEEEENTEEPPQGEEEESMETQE

NF90 dsRBDs = molecular target: T1, NF90 dsRBDs

Row | Binder | binding result [1] | binding result [2] | binding result (NF90 dsRBDs)
1 | CCCCACCACCAUCACUUAAAAAAAAAA (ssRNA) [ss17-A10] | no binding | – | –
2 | ss17-A10/Css17-U10 dsRNA (dsRNA) RNA 1: CCCCACCACCAUCACUUAAAAAAAAAA RNA 2: UUUUUUUUUUAAGUGAUGGUGGUGGGG | no binding | binds | binds
